The values below come from article doi:10.1101/2025.11.26.690658 (bioRxiv, 2025).

By stoichiometry N is commonly meant a count of units in the complex or per binding partner.

Data set [1] deals with McsAZ2-McsB complex (heterotetramer of a McsB dimer and two McsAZ2) (Bacillus subtilis strain 168) (UniProt P37569). The data set is described as follows: cryo-EM structure.
The data set “cryo-EM structure” concerns the molecule itself. Put plainly: cryo-EM structure.
Data set [2] has as its target T1, McsB(R194A), the McsB chain of the McsAZ2(R115A)-McsB(R194A) mutant (Bacillus subtilis strain 168, UniProt P37570 1-363, R194A).
T1 sequence: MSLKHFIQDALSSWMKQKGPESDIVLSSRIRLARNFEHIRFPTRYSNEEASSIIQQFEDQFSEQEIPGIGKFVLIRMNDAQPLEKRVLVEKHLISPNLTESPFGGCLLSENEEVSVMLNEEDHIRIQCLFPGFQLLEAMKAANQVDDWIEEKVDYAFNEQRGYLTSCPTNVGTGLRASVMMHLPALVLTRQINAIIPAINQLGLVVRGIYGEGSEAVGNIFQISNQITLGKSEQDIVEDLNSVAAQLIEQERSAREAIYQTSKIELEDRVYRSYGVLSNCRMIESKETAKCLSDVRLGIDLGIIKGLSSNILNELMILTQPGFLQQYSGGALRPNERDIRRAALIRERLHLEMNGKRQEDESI
Put plainly: SEC. In general terms: In gel filtration, larger molecules generally elute earlier.

“McsAZ2-McsB complex (heterotetramer of a McsB dimer and two McsAZ2) (from UniProt P37569;P37570)”: the stoichiometry N in data set [1] is 2 tetramers.

B1: McsB (B. subtilis protein-arginine kinase subunit), coexpressed with McsAZ2 (enzyme)
chain: MSLKHFIQDALSSWMKQKGPESDIVLSSRIRLARNFEHIRFPTRYSNEEASSIIQQFEDQFSEQEIPGIGKFVLIRMNDAQPLEKRVLVEKHLISPNLTESPFGGCLLSENEEVSVMLNEEDHIRIQCLFPGFQLLEAMKAANQVDDWIEEKVDYAFNEQRGYLTSCPTNVGTGLRASVMMHLPALVLTRQINRIIPAINQLGLVVRGIYGEGSEAVGNIFQISNQITLGKSEQDIVEDLNSVAAQLIEQERSAREAIYQTSKIELEDRVYRSYGVLSNCRMIESKETAKCLSDVRLGIDLGIIKGLSSNILNELMILTQPGFLQQYSGGALRPNERDIRRAALIRERLHLEMNGKRQEDESI
modifications: phosphoarginine at 194 and 333 (pR194, pR333)
As for B1, the “stoichiometry N” value in the data set “cryo-EM structure” is 2.

B2: CtsRCTD (C-terminal domain of CtsR, residues 75–154) (domain or fragment)
chain: KMNNEVVLINNIISQINTHLSQAASDDIILRLLEDKVISEREAKMMVSVMDRSVLHIDLPERDELRARMMKAMLTSLKLK
As to B2, the binding result in data set [2] is listed as “binds”.

B3: CtsR (B. subtilis transcriptional repressor), full length (natural protein)
chain: MGHNISDIIEQYLKRVLDQNGKEILEIKRSEIADKFQCVPSQINYVINTRFTSERGYIVESKRGGGGYIRIIKIKMNNEVVLINNIISQINTHLSQAASDDIILRLLEDKVISEREAKMMVSVMDRSVLHIDLPERDELRARMMKAMLTSLKLK
On to B3, for which the binding result in data set [2] is on record as “binds”.
